From US20080242590 come the findings set out here.

This data set concerns the target amyloid β peptide 1-40 (human).

B1: Recombinant Human Neprilysin (R&D Systems) (protein)
chain: YDDGICKSSDCIKSAARLIQNMDATTEPCTDFFKYACGGWLKRNVIPETSSRYGNFDILRDELEVVLKDVLQEPKTEDIVAVQKAKALYRSCINESAIDSRGGEPLLKLLPDIYGWPVATENWEQKYGASWTAEKAIAQLNSKYGKKVLINLFVGTDDKNSVNHVIHIDQPRLGLPSRDYYECTGIYKEACTAYVDFMISVARLIRQEERLPIDENQLALEMNKVMELEKEIANATAKPEDRNDPMLLYNKMTLAQIQNNFSLEINGKPFSWLNFTNEIMSTVNISITNEEDVVVYAPEYLTKLKPILTKYSARDLQNLMSWRFIMDLVSSLSRTYKESRNAFRKALYGTTSETATWRRCANYVNGNMENAVGRLYVEAAFAGESKHVVEDLIAQIREVFIQTLDDLTWMDAETKKRAEEKALAIKERIGYPDDIVSNDNKLNNEYLELNYKEDEYFENIIQNLKFSQSKQLKKLREKVDKDEWISGAAVVNAFYSSGRNQIVFPAGILQPPFFSAQQSNSLNYGGIGMVIGHEITHGFDDNGRNFNKDGDLVDWWTQQSASNFKEQSQCMVYQYGNFSWDLAGGQHLNGINTLGENIADNGGLGQAYRAYQNYIKKNGEEKLLPGLDLNHKQLFFLNFAQVWCGTYRPEYAVNSIKTDVHSPGNFRIIGTLQNSAEFSEAFHCRKNSYMNPEKKCRVW
With B1, the “Amyloid β 1-40 peptide degradation (remaining peptide by Gyrolab immunoassay), enzyme 2.4 µg/ml, 300 nM peptide, 2.5 h at 37 °C in buffer” value is “degraded 64% of Amyloid β 1-40 peptide (300 nM)”; the “degradation of Aβ40 in human plasma compared to vehicle (ELISA), 5 µg/ml, 4 h at 37 °C” value was “degraded Aβ40 with 33% and 70%, respectively”.
